{"source": "paper PMC8427864", "about": "“Optimizing operational parameters for the enzymatic production of furandicarboxylic acid building block” (Microbial Cell Factories, 2021)", "key": {"[1]": {"target": "T1, HMFO (hydroxymethylfurfural oxidase) WT (Methylovorus sp. MP688, UniProt E4QP00)", "T1 construct": "gene MPQ_0130; synthetic gene in pET23b(+), E. coli BL21(DE3)pLysS, purified by two anion-exchange steps; FAD-containing; no tag mentioned", "T1 sequence (E4QP00 1-531)": "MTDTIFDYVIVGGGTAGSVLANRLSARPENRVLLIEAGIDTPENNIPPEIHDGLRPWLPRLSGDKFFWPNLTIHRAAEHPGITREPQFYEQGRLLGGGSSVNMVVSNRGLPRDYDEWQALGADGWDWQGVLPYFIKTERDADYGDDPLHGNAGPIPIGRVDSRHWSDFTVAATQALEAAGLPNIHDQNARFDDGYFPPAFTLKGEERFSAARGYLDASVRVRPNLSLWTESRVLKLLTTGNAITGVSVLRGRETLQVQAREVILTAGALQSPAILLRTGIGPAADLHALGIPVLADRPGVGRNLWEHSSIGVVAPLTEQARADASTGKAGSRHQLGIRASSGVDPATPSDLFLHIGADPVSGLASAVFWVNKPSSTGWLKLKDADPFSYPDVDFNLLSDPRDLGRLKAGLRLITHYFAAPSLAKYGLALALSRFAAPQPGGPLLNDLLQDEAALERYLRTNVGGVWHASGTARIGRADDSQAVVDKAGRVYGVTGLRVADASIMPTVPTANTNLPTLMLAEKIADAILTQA", "experiment": "UV-visible spectra of folded enzyme and heat-released flavin", "format": "binding", "details": "flavin released at 95 °C, 5 min"}, "O=Cc1ccc(CO)o1 [2]": {"tested_on": "T2, O=Cc1ccc(CO)o1", "T2 construct": "synthetic gene in pET23b(+), E. coli BL21(DE3)pLysS, purified by two anion-exchange steps; FAD-containing; no tag mentioned", "experiment": "AmplexRed/HRP-coupled H2O2 assay, continuous steady state", "format": "biochemical, Methylovorus sp. MP688", "details": "50 mM Tris/HCl, pH 7.0, air oxygen as co-substrate, 8BxHMFO (Methods print G356K)"}, "O=Cc1ccc(C=O)o1": {"tested_on": "T3, O=Cc1ccc(C=O)o1", "T3 construct": "synthetic gene in pET23b(+), E. coli BL21(DE3)pLysS, purified by two anion-exchange steps; FAD-containing; no tag mentioned", "experiment": "AmplexRed/HRP-coupled H2O2 assay, continuous steady state", "format": "biochemical, Methylovorus sp. MP688", "details": "50 mM Tris/HCl, pH 7.0, air oxygen as co-substrate", "source_text": "(§1) AmplexRed/HRP-coupled H2O2 assay, continuous steady state on HMFO (hydroxymethylfurfural oxidase) WT | The saturation profiles for all the variants discarded any inhibitory effect by these two substrates"}, "O=Cc1ccc(CO)o1 [3]": {"tested_on": "T2, O=Cc1ccc(CO)o1", "experiment": "AmplexRed/HRP-coupled H2O2 assay, continuous steady state", "format": "biochemical, Methylovorus sp. MP688", "details": "50 mM Tris/HCl, pH 7.0, air oxygen as co-substrate", "source_text": "as §1"}}}
{"compound": "Cc1cc2nc3c(=O)[nH]c(=O)nc-3n(C[C@H](O)[C@H](O)[C@H](O)COP(=O)(O)OP(=O)(O)OC[C@H]3O[C@@H](n4cnc5c(N)ncnc54)[C@H](O)[C@@H]3O)c2cc1C", "note": "[FAD]", "values": [{"measurement": "UV-visible spectra of folded enzyme and heat-released flavin", "setting": "[1]", "value": "The spectra of the folded enzymes and the free flavin, obtained by heat treatment"}]}
{"compound": "HMFO (hydroxymethylfurfural oxidase) WT (Methylovorus sp. MP688; A419Y/A435E/G356H/H74Y/I73V/T414K/V367R/W466F)", "values": [{"measurement": "Km", "setting": "O=Cc1ccc(CO)o1 [2]", "value": "17.1 ± 1.6", "unit": "mM"}, {"measurement": "kcat", "setting": "O=Cc1ccc(CO)o1 [2]", "value": "0.09 ± 0.0033", "unit": "s⁻¹"}]}
{"compound": "HMFO (hydroxymethylfurfural oxidase) WT (Methylovorus sp. MP688; V367R)", "values": [{"measurement": "Km", "setting": "O=Cc1ccc(C=O)o1", "value": "1.1 ± 0.2", "unit": "mM"}, {"measurement": "kcat", "setting": "O=Cc1ccc(C=O)o1", "value": "0.0367 ± 0.0017", "unit": "s⁻¹"}, {"measurement": "Km", "setting": "O=Cc1ccc(CO)o1 [3]", "value": "4.2 ± 0.3", "unit": "mM"}, {"measurement": "kcat", "setting": "O=Cc1ccc(CO)o1 [3]", "value": "0.747 ± 0.0167", "unit": "s⁻¹"}]}
{"compound": "HMFO (hydroxymethylfurfural oxidase) WT (Methylovorus sp. MP688; V367R/W466F)", "values": [{"measurement": "Km", "setting": "O=Cc1ccc(C=O)o1", "value": "4.9 ± 0.5", "unit": "mM"}, {"measurement": "kcat", "setting": "O=Cc1ccc(C=O)o1", "value": "0.025 ± 0.00067", "unit": "s⁻¹"}, {"measurement": "Km", "setting": "O=Cc1ccc(CO)o1 [3]", "value": "23.1 ± 2.8", "unit": "mM"}, {"measurement": "kcat", "setting": "O=Cc1ccc(CO)o1 [3]", "value": "0.0567 ± 0.0033", "unit": "s⁻¹"}]}
{"compound": "HMFO (hydroxymethylfurfural oxidase) WT (Methylovorus sp. MP688; W466F)", "values": [{"measurement": "Km", "setting": "O=Cc1ccc(C=O)o1", "value": "1.8 ± 0.3", "unit": "mM"}, {"measurement": "kcat", "setting": "O=Cc1ccc(C=O)o1", "value": "0.005 ± 0.00017", "unit": "s⁻¹"}, {"measurement": "Km", "setting": "O=Cc1ccc(CO)o1 [3]", "value": "6.4 ± 0.5", "unit": "mM"}, {"measurement": "kcat", "setting": "O=Cc1ccc(CO)o1 [3]", "value": "0.0233 ± 0.0005", "unit": "s⁻¹"}]}
